The source of these data is the supplement of paper PMC12042874.

± gives the uncertainty stated by the source.

A short description of this data set: amyloid nucleation score (Sup35N fusion, yeast selection) (log enrichment); library NNK3; higher = more nucleation; inactive = no reads after selection. The method, boiled down: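 The nucleation score, computed with DiMSum, is the log enrichment of output over input reads, centred on the mode score of non-aggregating sequences. Sequences with under 100 input reads were dropped. Reads were generated by Illumina sequencing of plasmid inserts from psi-negative yeast with Sup35N fused to peptides of 20 random codons, induced with 100 μM copper sulfate for 24 hours and grown 7 days at 30°C on medium lacking adenine and uracil.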
CYFQYGNWFHLEGRNRSRSN came in with an amyloid nucleation score of 1.17 ± 0.19.

As for CYFVSVKLLTGVKLSHKYL, the amyloid nucleation score was 1.25 ± 0.15.

As for CYGNSMIGVFRICFHSLVYV, the amyloid nucleation score entry was “inactive”.

In the case of CYMYVRNGHLEIFLMGLSGF, the amyloid nucleation score result is “inactive”.

On to CYPVSVQYNGV, for which the amyloid nucleation score entry was “inactive”.

CYSCSMLFISWLCRYRSTQY showed an amyloid nucleation score of 1.02 ± 0.12.

For CYSGCEWSTYMLMGVLKVVS, the amyloid nucleation score entry was “inactive”.

Take CYTMSNVRVPWKRGICYCGL: the amyloid nucleation score result is “inactive”.

Consider CYWVRDSRLGW, for which the amyloid nucleation score result is “inactive”.

Take DACTVVCVCIQSIRGSQVSC: the amyloid nucleation score came to 1.09 ± 0.15.

As for DADTW, the amyloid nucleation score result is “inactive”.

DAFYIFWLDTSWFRWYAGTS showed an amyloid nucleation score of -0.131 ± 0.61.

DAIIVSIAYILG: the amyloid nucleation score result was “inactive”.

On to DAISVLCFLLKSFRWSTFRG, for which the amyloid nucleation score result was “inactive”.

As for DANGCA, the amyloid nucleation score result was “inactive”.

For DAVGCNILACDSGGRDWTGG, the amyloid nucleation score was -0.744 ± 1.2.

As for DCIYRDVCFNFTYMCKVNAQ, the amyloid nucleation score result is “inactive”.

As for DCKLVDIDSLLVTFDR, the amyloid nucleation score entry is “inactive”.

DDFSVPTDLIDVRRVS had an amyloid nucleation score of -0.047 ± 1.

For the substance DDIRCMFRTADFRAKMSVNS, the amyloid nucleation score entry was “inactive”.

In turn, DDVLYS showed an amyloid nucleation score of -0.19 ± 0.34.

On to DDVTHISLKKNSDNLGYNSR, for which the amyloid nucleation score result was “inactive”.

Turning to DFARGYGDNALVFYLYGLMY, the amyloid nucleation score was -0.684 ± 0.8.

DFFAHVNAIG: the amyloid nucleation score entry is “inactive”.

Turning to DFLFTNFSNSDLRGILCQSF, the amyloid nucleation score result was “inactive”.

For the substance DFSSWSFYHYPLVGQSSYTS, the amyloid nucleation score result is “inactive”.

On to DFTCDPSTLNSRRLSEDLIR, for which the amyloid nucleation score result is “inactive”.

In the case of DFYEIRTSGCDLYMFRGVVA, the amyloid nucleation score result was “inactive”.

On to DFYGYSY, for which the amyloid nucleation score entry was “inactive”.

DGAYYGLCMMFNVSVLMGII showed an amyloid nucleation score of 0.063 ± 0.51.

Consider DGDFIWISYVRKPKVNNDMF, for which the amyloid nucleation score result is “inactive”.

As for DGGCSKIVRQTLWLNPLGNS, the amyloid nucleation score entry is “inactive”.

As to DGKQVRGPGVAQSGANNGLE, the amyloid nucleation score entry was “inactive”.

Substance DGLIECWDFNRIMGLNKQNK displayed an amyloid nucleation score of -1.33 ± 1.9.

DGLYSTNQRSIAPHLTQPID: the amyloid nucleation score entry was “inactive”.

Consider DGMFSFGSLCRYAELETSGK, for which the amyloid nucleation score result is “inactive”.

As for DGMNSPRMEIRDRDRSAYIL, the amyloid nucleation score entry was “inactive”.

On to DGNFNQRYAHLDRSGCWL, for which the amyloid nucleation score entry was “inactive”.

Regarding DGRAWRALRGPK, the amyloid nucleation score entry is “inactive”.

Turning to DHFMNGMKQYTCRYFVLWPS, the amyloid nucleation score entry is “inactive”.

With DHVGADMGLCDNVG, the amyloid nucleation score result was “inactive”.

The substance DIFCLVVTYAERLLYLKTRT showed an amyloid nucleation score of -0.09 ± 0.75.

DIFSRSVS: the amyloid nucleation score result is “inactive”.

For DIFTPILMLCWV, the amyloid nucleation score result is “inactive”.

For DIKVMNLCLNWFFRLIHGV, the amyloid nucleation score result was “inactive”.

On to DILFDGESLFPYTENSWETR, for which the amyloid nucleation score entry is “inactive”.

Regarding DIQNFHQKTKGCLLFVWRRQ, the amyloid nucleation score entry is “inactive”.

For the substance DIRRSYTLVRTGFTV, the amyloid nucleation score entry was “inactive”.

Take DISFLSRSRYRKSHGVVNFS: the amyloid nucleation score was determined as 0.206 ± 0.43.

Consider DISHKLNTTIVMYFREALRG, for which the amyloid nucleation score result is “inactive”.

Consider DISPYFLYE, for which the amyloid nucleation score entry is “inactive”.

As to DIYMMLICGWGLGKLIPGFM, the amyloid nucleation score entry is “inactive”.

With DKDRVVSCMMTLLLSVGCAV, the amyloid nucleation score entry was “inactive”.

DKKGK: the amyloid nucleation score entry is “inactive”.

As for DLCVLAMASFEVAIAHGRPR, the amyloid nucleation score was found to be 0.172 ± 0.88.

Regarding DLIVILLTSYMYENVVVLNF, the amyloid nucleation score result is “inactive”.

Take DLMTMSYRLMIIFLVDTWPR: the amyloid nucleation score result is “inactive”.

As for DLPSMSIVIVIQKLYARVNR, the amyloid nucleation score result is “inactive”.

DLSTTLINPIEEQPYHFAVP: the amyloid nucleation score result is “inactive”.

Take DLSVYYVLLFVCDGL: the amyloid nucleation score was -1.35 ± 1.8.

Regarding DLVEVIYSVTSYYPNYLRAK, the amyloid nucleation score entry was “inactive”.

With DLVMDFQ, the amyloid nucleation score entry was “inactive”.

As to DLVPVIHGIYWAG, the amyloid nucleation score entry is “inactive”.

On to DLVTSTGYSGVNAVSDIEDF, for which the amyloid nucleation score result is “inactive”.

Substance DLVYHIEDMFGSMR yielded an amyloid nucleation score of 0.547 ± 0.22.

Take DMHGRSNNLW: the amyloid nucleation score result was “inactive”.

As for DMINSGQISDHVLD, the amyloid nucleation score result is “inactive”.

Consider DMKNWPKDYQ, for which the amyloid nucleation score entry is “inactive”.

For DMLFDQGLSCNGLI, the amyloid nucleation score entry is “inactive”.

On to DMVSRSSCSDL, for which the amyloid nucleation score entry is “inactive”.

As for DNSVALIDYSWAVTRI, the amyloid nucleation score entry was “inactive”.

With DNWFN, the amyloid nucleation score result is “inactive”.

As for DPFRLLGEY, the amyloid nucleation score result is “inactive”.

Regarding DPYSDVQDKDTSDAGYASRV, the amyloid nucleation score result was “inactive”.

In the case of DQRLFFGHGGFDAVSW, the amyloid nucleation score entry is “inactive”.

DRAGHGSV: the amyloid nucleation score entry is “inactive”.

Turning to DRDSALWIMTVWVRGSHYTR, the amyloid nucleation score entry is “inactive”.

On to DRELSFLPGYYLYARVRHKS, for which the amyloid nucleation score result is “inactive”.

Turning to DRIVACKLKTGYTQGMVPLL, the amyloid nucleation score result was “inactive”.

For DRLALEFVYRR, the amyloid nucleation score was found to be 0.145 ± 0.44.

With DRNEVLDQNVVDSEISTVLP, the amyloid nucleation score result was “inactive”.

Turning to DRPRQRTAFVYRQWLMYYQ, the amyloid nucleation score entry is “inactive”.

For the substance DRTMQVIIYARQRVPLKWVS, the amyloid nucleation score entry was “inactive”.

Regarding DRVFLQPTCYITAGYGFRVM, the amyloid nucleation score entry was “inactive”.

Turning to DRYCLWVRCLVDAFMRPVVG, the amyloid nucleation score entry is “inactive”.

Consider DSDVWANAGHRLSLKMI, for which the amyloid nucleation score entry was “inactive”.

As for DSDYGNVVWRFYRSYGCTGL, the amyloid nucleation score result is “inactive”.

With DSGLCV, the amyloid nucleation score entry is “inactive”.

Consider DSHGYIYLCVWVRTQNPWSV, for which the amyloid nucleation score result was “inactive”.

Take DSIFSWSFRGFSCVN: the amyloid nucleation score entry is “inactive”.

Regarding DSKQNYLIRVDRLFMECGLK, the amyloid nucleation score entry was “inactive”.

As for DSLSFGVVIFLYFKPGEFLY, the amyloid nucleation score entry was “inactive”.

Substance DSLSGYSVPYWSSFMNPWTN had an amyloid nucleation score of 0.677 ± 0.24.

DSLYWCSPFNGHCSDNNTQN: the amyloid nucleation score result was “inactive”.

For DSRMF, the amyloid nucleation score result is “inactive”.

In the case of DSVFNL, the amyloid nucleation score entry is “inactive”.

The substance DSVKSALRRGI gave an amyloid nucleation score of -0.166 ± 0.9.

In the case of DTFMDSMLYTGLSIPCKVLL, the amyloid nucleation score was -0.116 ± 1.4.

For DTLYGDYQGQRYSVALMKCV, the amyloid nucleation score entry is “inactive”.

DTPMESGTGATHLVRIVHSA: the amyloid nucleation score entry was “inactive”.

For DTWMST, the amyloid nucleation score entry is “inactive”.

With DVANKIVSKGRS, the amyloid nucleation score entry is “inactive”.

As to DVDVPT, the amyloid nucleation score result was “inactive”.

For DVFRRFAGRTLQLSPWDTTL, the amyloid nucleation score entry is “inactive”.

In the case of DVGLAVNTSHLWSYT, the amyloid nucleation score result is “inactive”.

On to DVHWISGKSNYSDDNRCYST, for which the amyloid nucleation score entry is “inactive”.

As to DVLHLRCREVRRDVGYVTEF, the amyloid nucleation score result is “inactive”.

For DVSWRTPYTIKNYGSFFLIK, the amyloid nucleation score entry is “inactive”.

Turning to DVVGLVAGIVVKLILCSHYG, the amyloid nucleation score entry was “inactive”.

On to DVVLTNVFDCML, for which the amyloid nucleation score result was “inactive”.

As to DVVSLGIMQKGSWSGCML, the amyloid nucleation score entry was “inactive”.

For DWHAIFTMFECNMQRGKSAR, the amyloid nucleation score was 0.113 ± 0.31.

For DWRMAYVSVC, the amyloid nucleation score result is “inactive”.

As for DWSPLAGRRMTSAVDGVSMD, the amyloid nucleation score result was “inactive”.

As for DWSWFK, the amyloid nucleation score entry is “inactive”.

DWSYEKWLACSGFYGRRRL: the amyloid nucleation score entry is “inactive”.

DYCGDCMILFCTLVGYDRCT registered an amyloid nucleation score of 2.06 ± 0.068.

Consider DYCLSLLWINMPHVGNIVNL, for which the amyloid nucleation score entry was “inactive”.

On to DYGATGHC, for which the amyloid nucleation score result was “inactive”.

DYNDCIKISIFLLYSPLIWC yielded an amyloid nucleation score of 1.79 ± 0.1.

Consider DYTRKVHTIEGSSYYWLNFS, for which the amyloid nucleation score worked out at 1.36 ± 0.078.

With DYVCYLILVLEASRRNCRSS, the amyloid nucleation score entry is “inactive”.

With DYYLNLGGK, the amyloid nucleation score result is “inactive”.

Consider EAGSTLWCGWKRYASCGRAE, for which the amyloid nucleation score result is “inactive”.

Regarding EAHGYVR, the amyloid nucleation score result is “inactive”.

Substance EAKLVGGFTDFRELITNCLV had an amyloid nucleation score of 1.01 ± 0.17.

With EAPRFCSRAMDYVILQGWTL, the amyloid nucleation score result was “inactive”.

Take ECELPNAPTCEICKIDSRLG: the amyloid nucleation score entry was “inactive”.

With ECIGRKRELDLWSAARYAYS, the amyloid nucleation score entry was “inactive”.

As to ECLKPCSSNCTNRPTARPQC, the amyloid nucleation score entry was “inactive”.

ECTLGCTSDWGNLKARHGVR: the amyloid nucleation score result is “inactive”.
